Source: the supplement of paper PMC10567573

B1: KLHDC10 (parent)
chain: FGGTGIPFGESNGNGVHVCNVKYK

Variants of: B1
Test: protein stability index of a GFP-peptide fusion (GPS, HEK-293T) (PSI 1-6); higher = more stable
Details: c terminus: a fixed tail appended
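Also: lentivirally expressed fusions sorted by FACS into six bins by GFP to DsRed ratio, PSI derived from sequencing read proportions per bin multiplied by bin number.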

Protein stability index of substitutions, site by site:
E10: S 3.04 | M 2.26 | V 2.49 | D 1.73 | L 2.43 | Q 2.94 | W 2.59 | I 2.39 | N 3.06 | H 1.99 | T 1.62 | F 1.7 | C 1.51 | R 2.46 | A 2.94 | G 1.68 | P 1.95 | Y 1.45 | K 1.46
G13: E 2.28 | I 1.38 | T 2.58 | C 1.59 | D 2.18 | Y 2.09 | V 2.17 | K 2.06 | N 1.7 | A 2.02 | R 2.36 | L 2.05 | W 2.03 | F 1.9 | P 1.91 | M 2.73 | Q 2.38 | H 1.77 | S 1.92
C19: W 1.71 | F 2.62 | K 2.08 | H 1.46 | Y 2.06 | G 2.06 | N 2.38 | A 2.31 | E 2.76 | R 2.35 | Q 2.29 | I 1.75 | L 1.97 | V 2.07 | M 2.15 | P 2.21 | T 2.01 | S 2.01 | D 2.62
N14: E 2.47 | W 3.08 | I 1.2 | Y 1.62 | G 1.54 | T 1.98 | D 1.87 | P 1.91 | H 2.12 | A 1.82 | F 1.62 | S 1.9 | K 1.81 | M 1.99 | L 1.81 | Q 2.03 | V 2.67 | R 2.04 | C 1.87
Y23: C 2.54 | A 2.76 | R 2.17 | P 2.41 | F 2.03 | D 3.3 | G 2.04 | T 2.14 | Q 2.28 | S 2.99 | I 2.38 | E 2.47 | K 2.01 | H 2.43 | M 2.1 | N 2.49 | L 2.07 | V 2.23
N20: C 1.11 | G 1.66 | K 2.44 | Q 1.87 | P 1.52 | H 1.48 | V 1.55 | I 1.82 | R 2.15 | Y 2.23 | L 1.36 | T 1.75 | M 1.38 | F 2.06 | A 2.35 | S 1.65 | E 1.92 | W 2.83 | D 1.98
H17: E 2.48 | G 1.63 | V 2.32 | S 3.15 | I 1.91 | K 2.01 | M 1.37 | T 2.22 | L 2.08 | N 2.03 | P 2.68 | Q 2.45 | F 2.34 | D 2.54 | Y 1.52 | W 1.64 | C 1.75 | A 1.92 | R 2.13
V18: I 1.74 | T 2.27 | G 2.24 | W 1.75 | H 2.06 | A 2.1 | K 1.86 | D 3.08 | S 2.45 | R 2.03 | M 2.24 | N 2.31 | P 1.97 | E 2.75 | L 1.71 | Q 2.04 | Y 2.19 | C 2.06 | F 2.15
G9: M 1.18 | P 2.44 | Y 2.15 | V 2.57 | D 3.04 | H 2.72 | L 1.39 | R 1.76 | E 3.16 | K 1.79 | W 2.89 | Q 1.88 | S 1.74 | N 2.29 | T 1.66 | I 2.16 | C 1.41 | A 1.85
V16: A 2.6 | W 2.49 | Q 2.04 | G 2.47 | R 2.97 | S 2.27 | M 1.89 | E 2.97 | T 1.98 | I 2.46 | P 2.43 | L 1.39 | F 2.23 | N 2.06 | Y 1.89 | C 1.19 | K 2.15 | D 2.42 | H 2.1
S11: Y 1.65 | L 1.62 | C 1.82 | T 1.96 | N 1.91 | I 2.73 | K 1.87 | D 2.52 | H 2.2 | P 2.3 | Q 2.06 | A 1.97 | M 2.25 | E 2.82 | F 1.72 | V 2.35 | W 2.4 | R 1.97 | G 1.54
G15: A 1.59 | H 1.9 | N 1.52 | V 1.9 | Y 1.42 | L 1.73 | C 1.58 | T 1.92 | Q 1.78 | I 1.77 | R 1.82 | P 2.06 | K 2.1 | E 2.34 | W 1.62 | F 1.49 | S 2.14 | M 1.52 | D 2.3
F8: R 3.37 | S 3.62 | N 3.61 | M 3.02 | V 2.83 | Y 2.16 | L 3.04 | W 1.98 | A 3.78 | P 4.12 | T 3.22 | G 3.58 | I 2.5 | H 2.65 | C 3.02 | E 4.3 | Q 3.75 | D 4.16 | K 3.84
I6: P 1.94 | N 2.07 | F 2.3 | K 2.2 | M 2.07 | L 2.39 | W 2.27 | T 1.84 | Q 2.27 | G 1.96 | R 1.72 | H 2.08 | S 1.88 | V 2.16
P7: K 2.01 | A 1.41 | S 2.14 | D 2.92 | R 2.07 | Y 2.5 | C 1.5 | H 2.13 | F 3.68 | E 2.44 | I 1.73 | Q 2.06 | T 2.33 | N 2.4 | V 2.92 | M 1.29 | G 2.23 | L 3.6
N12: V 1.6 | H 2.22 | L 1.87 | S 1.74 | G 1.62 | A 1.85 | Y 2.59 | M 1.9 | F 1.41 | R 1.51 | K 1.82 | C 1.63 | E 2.11 | T 1.97 | P 1.73 | I 1.58 | D 2.33 | W 1.74 | Q 2.06
V21: P 1.92 | Q 2.14 | D 2.14 | I 2.78 | S 2.38 | Y 2.5 | G 1.78 | W 1.86 | K 1.98 | H 1.7 | C 2.04 | M 1.95 | T 2.17 | R 1.72 | E 2.31 | L 1.58 | N 2.54 | F 1.82 | A 1.74
K22: L 1.29 | I 1.83 | E 2.4 | Y 1.95 | M 1.9 | R 2.34 | V 2.24 | F 1.63 | C 1.24 | P 1.91 | Q 2.89 | W 2.1 | D 2.35 | A 2.53 | T 1.98 | S 1.29 | N 1.8 | G 1.98 | H 2.07
